In article PMC4338372 (FEBS Open Bio, 2015):

Experiments:
[1] = target: ^15N-labeled SH3 domain of Hck (SH3Hck), GST tag cleaved (UniProt P08631 77-141, uniformly ^15N labeled); experiment: NMR titration
[2] = target: 6His-tagged ELMO1 C-terminal domain with the polyproline motif (ELMO_(532–727)) (mouse, UniProt Q8BPU7 532-727); experiment: ELISA

Sequence of ^15N-labeled SH3 domain of Hck (SH3Hck), GST tag cleaved (P08631 77-141): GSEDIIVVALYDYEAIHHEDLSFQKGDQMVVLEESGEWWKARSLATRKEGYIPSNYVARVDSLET

Row | Binder | Kd [1] | Kd [2]
1 | DLENIQIPDAPPPIPKEPSNYDFVYDCN [ELMO_(700–727) peptide (28 C-terminal amino-acids of ELMO1)] | 1600 ± 300 µM | 
2 | GST-fused SH3 domain of Hck (GST-SH3Hck) (domain or fragment) not shown |  | ~10 µM
